Where two headings read alike, the source gives them in different places.
Tests used:
[1] = molecular target: T1, MBP-FLAG-PPP1CC-His (human, UniProt P36873 1-323); test: ITC
[2] = molecular target: T1, MBP-FLAG-PPP1CC-His; test: ITC; remark: listed apart in the source

T1 sequence (P36873 whole entry): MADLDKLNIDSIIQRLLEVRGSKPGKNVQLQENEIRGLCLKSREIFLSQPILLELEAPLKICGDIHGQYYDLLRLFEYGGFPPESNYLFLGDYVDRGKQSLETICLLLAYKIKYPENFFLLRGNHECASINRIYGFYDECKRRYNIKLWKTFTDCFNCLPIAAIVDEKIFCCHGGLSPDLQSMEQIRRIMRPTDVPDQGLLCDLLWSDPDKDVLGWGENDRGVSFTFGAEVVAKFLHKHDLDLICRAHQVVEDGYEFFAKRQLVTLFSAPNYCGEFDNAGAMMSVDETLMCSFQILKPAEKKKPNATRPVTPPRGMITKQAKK

B1: recombinant PPP1R2 (natural protein)
chain: MAASTASHRPIKGILKNKTSTTSSMVASAEQPRGNVDEELSKKSQKWDEMNILATYHPADKDYGLMKIDEPSTPYHSMMGDDEDACSDTEATEAMAPDILARKLAAAEGLEPKYRIQEQESSGEEDSDLSPEEREKKRQFEMKRKLHYNEGLNIKLARQLISKDLHDDDEDEEMLETADGESMNTEESNQGSTPSDQQQNKLRSS
Q: Which Kd [1] does the source give for B1 here?
A: 3.59 µM

Q: What about the Kd [2] of the same binder?
A: 1.13 µM
